B1: Gal80p (other, Saccharomyces cerevisiae (yeast), UniProt P04387 1-435, looked up)
chain: MDYNKRSSVSTVPNAAPIRVGFVGLNAAKGWAIKTHYPAILQLSSQFQITALYSPKIETSIATIQRLKLSNATAFPTLESFASSSTIDMIVIAIQVASHYEVVMPLLEFSKNNPNLKYLFVEWALACSLDQAESIYKAAAERGVQTIISLQGRKSPYILRAKELISQGYIGDINSIEIAGNGGWYGYERPVKSPKYIYEIGNGVDLVTTTFGHTIDILQYMTSSYFSRINAMVFNNIPEQELIDERGNRLGQRVPKTVPDHLLFQGTLLNGNVPVSCSFKGGKPTKKFTKNLVIDIHGTKGDLKLEGDAGFAEISNLVLYYSGTRANDFPLANGQQAPLDPGYDAGKEIMEVYHLRNYNAIVGNIHRLYQSISDFHFNTKKIPELPSQFVMQGFDFEGFPTLMDALILHRLIESVYKSNMMGSTLNVSNISHYSL
notes: Endogenous yeast protein, inside the cells; also called Gal80 protein

One experiment concerns the target T1, Gal4p (Saccharomyces cerevisiae (yeast), UniProt P04386 1-881).
T1 construct: Endogenous protein of wild type Sc723 cells, cross-linked in vivo
The experiment is described as follows: formaldehyde cross-linking and chromatin immunoprecipitation in yeast, un-induced against galactose-induced. The method, then:
Fold enrichments are indicated (enrichment). […] FIG. 3C illustrates quantitation of promoter occupancy by Gal4p, Gal80p and Gal3p in un-induced and induced cells. Values are means (±standard deviation) of at least five experiments carried out with two sets of independently prepared chromatin samples.
Chromatin immunoprecipitations were performed as described by Braunstein et al., 1993, Genes Dev. 7: 592-604 and Kuras et al. 1999, Nature 399: 609-613. Briefly, wild type Sc723 cells (Blank et al., 1997, Mol. Cell. Biol. 17: 2566-2575) were grown to early exponential growth phase (as measured by absorbance at 600 nm˜0.4) in 250 mL yeast extract-peptone medium containing 2% glycerol, 3% lactic acid, and 0.05% glucose (-galactose, un-induced). For galactose-induced cultures, galactose was added to the un-induced cultures to a final concentration of 2% and the cultures were incubated for an additional 20 minutes. Formaldehyde was added to a final concentration of 1%, the cultures were incubated for 20 minutes at room temperature, and glycine was added to a final concentration of 300 mM. All the following steps were carried out at […]. Cells were washed twice with TBS (20 mM Tris-HCl, 150 mM NaCl, pH 8.0), resuspended in 1 mL lysis buffer (50 mM Tris-HCl pH 8.0, 10 mM EDTA, 1% SDS, 1 mM PMSF), and disrupted by vortexing with glass beads. […]

In the next experiment the target is T2, wild type Gal3p (Saccharomyces cerevisiae (yeast), UniProt P13045 1-520).
T2 sequence (looked up): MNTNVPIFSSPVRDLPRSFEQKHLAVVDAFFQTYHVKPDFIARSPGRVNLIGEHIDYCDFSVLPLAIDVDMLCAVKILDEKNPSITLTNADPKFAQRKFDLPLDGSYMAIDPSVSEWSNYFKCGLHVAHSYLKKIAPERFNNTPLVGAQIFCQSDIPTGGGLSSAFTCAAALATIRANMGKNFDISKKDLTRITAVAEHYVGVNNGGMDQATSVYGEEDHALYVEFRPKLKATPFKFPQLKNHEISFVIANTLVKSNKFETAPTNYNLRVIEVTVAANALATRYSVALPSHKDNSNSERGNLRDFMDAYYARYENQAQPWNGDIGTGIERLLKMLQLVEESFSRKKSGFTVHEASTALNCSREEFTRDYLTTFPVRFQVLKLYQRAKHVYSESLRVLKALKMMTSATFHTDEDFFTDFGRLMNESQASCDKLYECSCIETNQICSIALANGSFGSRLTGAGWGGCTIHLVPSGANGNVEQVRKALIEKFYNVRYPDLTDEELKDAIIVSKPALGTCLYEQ
The experiment is described as follows: cell-based or functional assay.

In the experiment “Gal80p” the target is B1. As to the kind of experiment: UASGAL-HIS3 reporter growth assay in yeast without galactose. The text has this: FIG. 6. (Yeast cells) Membrane targeted transcriptional activation domain of Gal4p (Gal4AD; amino acid 758-881) activates HIS3 reporter gene expression. A yeast strain harboring a UASGAL-HIS3 reporter was transformed with Myr-Gal4AD. […] Transformed cells were spotted on synthetic medium plates lacking histidine, tryptophan and uracil and containing 3% glycerol/2% lactic acid as carbon source.

The target in the next experiment is T3, Gal80-TBP (Saccharomyces cerevisiae (yeast), UniProt P04387 1-435; P13393 1-240, limits assumed).
T3 construct: The junction and any tags are not described
T3 sequence (looked up): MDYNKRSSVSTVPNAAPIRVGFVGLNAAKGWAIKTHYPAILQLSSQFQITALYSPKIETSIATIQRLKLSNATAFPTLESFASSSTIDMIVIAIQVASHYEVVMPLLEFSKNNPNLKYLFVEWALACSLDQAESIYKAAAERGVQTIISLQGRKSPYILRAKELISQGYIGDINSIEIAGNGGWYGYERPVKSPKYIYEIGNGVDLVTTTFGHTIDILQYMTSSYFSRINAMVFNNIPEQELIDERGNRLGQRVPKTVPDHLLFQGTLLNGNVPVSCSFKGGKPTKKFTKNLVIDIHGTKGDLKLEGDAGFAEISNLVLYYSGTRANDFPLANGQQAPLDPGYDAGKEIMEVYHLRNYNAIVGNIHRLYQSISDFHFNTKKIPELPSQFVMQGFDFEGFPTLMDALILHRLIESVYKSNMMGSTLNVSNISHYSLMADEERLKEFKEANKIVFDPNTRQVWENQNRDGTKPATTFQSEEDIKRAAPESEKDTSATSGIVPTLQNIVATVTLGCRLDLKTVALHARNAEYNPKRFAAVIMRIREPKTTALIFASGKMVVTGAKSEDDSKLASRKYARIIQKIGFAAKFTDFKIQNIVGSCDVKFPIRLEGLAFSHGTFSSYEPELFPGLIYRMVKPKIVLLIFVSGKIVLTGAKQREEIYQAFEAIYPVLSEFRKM
As to the kind of experiment: 80-Trap HIS3 reporter growth assay in yeast. An excerpt:
FIG. 5. (Yeast cells) A membrane-targeted transcription factor activates GAL gene expression through interaction with Gal80-TBP. Galactose-independent HIS3 reporter (expression as a result of Gal80-TBP and Myr-TAF145 interaction; lane 1). Lane 2 illustrates the positive control: interaction between two proteins known to interact: Fpr1 (in fusion with Gal80) and Hom3 (fused to the Myr sequence and CFP). Lane 3 is the negative control with Gal80-TBP tested against just the Myr sequence. The nutrient agar plate used here contained 3% glycerol/2% lactic acid as carbon source and lacked histidine, tryptophan and uracil.

Regarding B1, in the experiment with Gal4p, the binding result is listed as “binds”. For the same molecule, the “MEL1 gene expression level” value with wild type Gal3p was 2 fold reduction.

B2: Membrane targeted transcriptional activation domain of Gal4p (Myr-Gal4AD) (other, Saccharomyces cerevisiae (yeast))
chain: MGCTVSTQTIGDESDPPLTPSALFGGANFNQSGNIADSSLSFTFTNSSNGPNLITTQTNSQALSQPIASSNVHDNFMNNEITASKIDDGNNSKPLSPGWTDQTAYNAFGITTGMFNTTTMDDVYNYLFDDEDTPPNPKKE
modifications: N-myristoylation signal at the N terminus
notes: range 758-881; also called membrane-localized Gal4AD
Regarding B2, the binding result with Gal80p was “binds”.
Consider MGCTVSTQTIGDESDP (N-myristoylation signal) [Myr sequence], for which the binding result in the experiment with Gal80-TBP is on record as “no binding”.

The values are drawn from patent US20040058368A1 (PENN STATE RESEARCH FOUNDATION, published 2004).
